Laboratory results: paper PMC12008302

Columns and labels:
[1] = intracellular IDUA activity 24 h after enzyme addition; conditions: glycan changed form; control: HM-IDUA
[2] = AcidiFluor ORANGE live-cell imaging of lysosomal delivery; conditions: glycan changed form; control: AFO-labeled HM-IDUA

B1: α-L-iduronidase (hIDUA): M6P-IDUA (Endo-D, then Endo-M N175Q transglycosylation) (protein)
parent chain: MRPLRPRAALLALLASLLAAPPVAPAEAPHLVHVDAARALWPLRRFWRSTGFCPPLPHSQADQYVLSWDQQLNLAYVGAVPHRGIKQVRTHWLLELVTTRGSTGRGLSYNFTHLDGYLDLLRENQLLPGFELMGSASGHFTDFEDKQQVFEWKDLVSSLARRYIGRYGLAHVSKWNFETWNEPDHHDFDNVSMTMQGFLNYYDACSEGLRAASPALRLGGPGDSFHTPPRSPLSWGLLRHCHDGTNFFTGEAGVRLDYISLHRKGARSSISILEQEKVVAQQIRQLFPKFADTPIYNDEADPLVGWSLPQPWRADVTYAAMVVKVIAQHQNLLLANTTSAFPYALLSNDNAFLSYHPHPFAQRTLTARFQVNNTRPPHVQLLRKPVLTAMGLLALLDEEQLWAEVSQAGTVLDSNHTVGVLASAHRPQGPADAWRAAVLIYASDDTRAHPNRSVAVTLRLRGVPPGPGLVYVTRYLDNGLCSPDGEWRRLGRPVFPTAEQFRRMRAAEDPVAAAPRPLPAGGRLTLRPALRLPSLLLVHVCARPEKPPGQVTRLRALPLTQGQLVLVWSDEHVGSKCLWTYEIQFSQDGKAYTPVSRKPSTFNLFVFSPDTGAVSGSYRVRALDYWARPGPFSDPVPYLEVPVPRGPPSPGNP
- other: cellular uptake [1]: increases

B2: α-L-iduronidase (hIDUA): SG-IDUA (protein)
parent chain: MRPLRPRAALLALLASLLAAPPVAPAEAPHLVHVDAARALWPLRRFWRSTGFCPPLPHSQADQYVLSWDQQLNLAYVGAVPHRGIKQVRTHWLLELVTTRGSTGRGLSYNFTHLDGYLDLLRENQLLPGFELMGSASGHFTDFEDKQQVFEWKDLVSSLARRYIGRYGLAHVSKWNFETWNEPDHHDFDNVSMTMQGFLNYYDACSEGLRAASPALRLGGPGDSFHTPPRSPLSWGLLRHCHDGTNFFTGEAGVRLDYISLHRKGARSSISILEQEKVVAQQIRQLFPKFADTPIYNDEADPLVGWSLPQPWRADVTYAAMVVKVIAQHQNLLLANTTSAFPYALLSNDNAFLSYHPHPFAQRTLTARFQVNNTRPPHVQLLRKPVLTAMGLLALLDEEQLWAEVSQAGTVLDSNHTVGVLASAHRPQGPADAWRAAVLIYASDDTRAHPNRSVAVTLRLRGVPPGPGLVYVTRYLDNGLCSPDGEWRRLGRPVFPTAEQFRRMRAAEDPVAAAPRPLPAGGRLTLRPALRLPSLLLVHVCARPEKPPGQVTRLRALPLTQGQLVLVWSDEHVGSKCLWTYEIQFSQDGKAYTPVSRKPSTFNLFVFSPDTGAVSGSYRVRALDYWARPGPFSDPVPYLEVPVPRGPPSPGNP
- localisation_or_trafficking [2]: increases

B3: α-L-iduronidase (hIDUA): SG-IDUA (Endo-CC N180H transglycosylation) (protein)
parent chain: MRPLRPRAALLALLASLLAAPPVAPAEAPHLVHVDAARALWPLRRFWRSTGFCPPLPHSQADQYVLSWDQQLNLAYVGAVPHRGIKQVRTHWLLELVTTRGSTGRGLSYNFTHLDGYLDLLRENQLLPGFELMGSASGHFTDFEDKQQVFEWKDLVSSLARRYIGRYGLAHVSKWNFETWNEPDHHDFDNVSMTMQGFLNYYDACSEGLRAASPALRLGGPGDSFHTPPRSPLSWGLLRHCHDGTNFFTGEAGVRLDYISLHRKGARSSISILEQEKVVAQQIRQLFPKFADTPIYNDEADPLVGWSLPQPWRADVTYAAMVVKVIAQHQNLLLANTTSAFPYALLSNDNAFLSYHPHPFAQRTLTARFQVNNTRPPHVQLLRKPVLTAMGLLALLDEEQLWAEVSQAGTVLDSNHTVGVLASAHRPQGPADAWRAAVLIYASDDTRAHPNRSVAVTLRLRGVPPGPGLVYVTRYLDNGLCSPDGEWRRLGRPVFPTAEQFRRMRAAEDPVAAAPRPLPAGGRLTLRPALRLPSLLLVHVCARPEKPPGQVTRLRALPLTQGQLVLVWSDEHVGSKCLWTYEIQFSQDGKAYTPVSRKPSTFNLFVFSPDTGAVSGSYRVRALDYWARPGPFSDPVPYLEVPVPRGPPSPGNP
- other: cellular uptake [1]: increases

B4: α-L-iduronidase (hIDUA): M6P-IDUA (protein)
parent chain: MRPLRPRAALLALLASLLAAPPVAPAEAPHLVHVDAARALWPLRRFWRSTGFCPPLPHSQADQYVLSWDQQLNLAYVGAVPHRGIKQVRTHWLLELVTTRGSTGRGLSYNFTHLDGYLDLLRENQLLPGFELMGSASGHFTDFEDKQQVFEWKDLVSSLARRYIGRYGLAHVSKWNFETWNEPDHHDFDNVSMTMQGFLNYYDACSEGLRAASPALRLGGPGDSFHTPPRSPLSWGLLRHCHDGTNFFTGEAGVRLDYISLHRKGARSSISILEQEKVVAQQIRQLFPKFADTPIYNDEADPLVGWSLPQPWRADVTYAAMVVKVIAQHQNLLLANTTSAFPYALLSNDNAFLSYHPHPFAQRTLTARFQVNNTRPPHVQLLRKPVLTAMGLLALLDEEQLWAEVSQAGTVLDSNHTVGVLASAHRPQGPADAWRAAVLIYASDDTRAHPNRSVAVTLRLRGVPPGPGLVYVTRYLDNGLCSPDGEWRRLGRPVFPTAEQFRRMRAAEDPVAAAPRPLPAGGRLTLRPALRLPSLLLVHVCARPEKPPGQVTRLRALPLTQGQLVLVWSDEHVGSKCLWTYEIQFSQDGKAYTPVSRKPSTFNLFVFSPDTGAVSGSYRVRALDYWARPGPFSDPVPYLEVPVPRGPPSPGNP
- localisation_or_trafficking [2]: increases
